Assay results reported in US20250057927A1, “ALPHA-1 A[…] FROM YEAST FOR USE IN THE TREATMENT OF VIRAL INFECTIONS” (priority 2021, published 2025).

Test system: lentiviral pseudoparticles harbouring the SARS-CoV-2 spike protein of Wuhan Hu-1 isolate
Type: cell-based

For Prolastin, the “IC50 of inhibiting pseudoparticle entry into Caco2 cells” value was 3160 µg/mL, the “estimated IC90” value was 20000 µg/mL and the pseudoparticle entry was “about 10%”.

B1: rec α1AT Fraction 52 (protein)
chain: EDPQGDAAQKTDTSHHDQDHPTFNKITPNLAEFAFSLYRQLAHQSNSTNIFFSPVSIATAFAMLSLGTKADTHDEILEGLNFNLTEIPEAQIHEGFQELLRTLNQPDSQLQLTTGNGLFLSEGLKLVDKFLEDVKKLYHSEAFTVNFGDTEEAKKQINDYVEKGTQGKIVDLVKELDRDTVFALVNYIFFKGKWERPFEVKDATEEEDFHVDQVTTVKVPMMKRLGMFNIQHCKKLSSWVLLMKYLGNATAIFFLPDEGKLQHLENELTHDIITKFLENEDRRSASLHLPKLSITGTYDLKSVLGQLGITKVFSNGADLSGVTEEAPLKLSKAVHKAVLTIDEKGTEAAGAMFLEAIPMSIPPEVKFNKPFVFLMIEQNTKSPLFMGKVVNPTQK
B1 was tested, and the “inhibition of pseudoparticle entry compared to Prolastin” value was “greater inhibition” and the “inhibition of the entry of SARS-CoV-2” value was “inhibit the entry of SARS-CoV-2 similar to Prolastin”.

B2: rhAAT (protein)
chain: B1 chain
B2 was tested, and the “estimated IC90” value was 8000 µg/mL and the “inhibition of pseudoparticle entry” value was “complete inhibition”.

B3: rec α1AT Fraction 53 (protein)
chain: B1 chain
With B3 the “activity in the pseudoparticle assay compared to Prolastin” value was “greater activity”, the “inhibition of pseudoparticle entry compared to Prolastin” value was “greater inhibition” and the “inhibition of the entry of SARS-CoV-2” value was “inhibit the entry of SARS-CoV-2 similar to Prolastin”.
